Reference: US20230110188A1 (ARGENX IIP, published 2023)

T1: Human MuSK (R&D Systems, cat. 10189-MK, histidine tag) (human, UniProt O15146 24-495)
T1 construct: Bought protein; also called human monomeric MuSK-6xhis; not shown: histidine tag (6xhis)
T1 sequence: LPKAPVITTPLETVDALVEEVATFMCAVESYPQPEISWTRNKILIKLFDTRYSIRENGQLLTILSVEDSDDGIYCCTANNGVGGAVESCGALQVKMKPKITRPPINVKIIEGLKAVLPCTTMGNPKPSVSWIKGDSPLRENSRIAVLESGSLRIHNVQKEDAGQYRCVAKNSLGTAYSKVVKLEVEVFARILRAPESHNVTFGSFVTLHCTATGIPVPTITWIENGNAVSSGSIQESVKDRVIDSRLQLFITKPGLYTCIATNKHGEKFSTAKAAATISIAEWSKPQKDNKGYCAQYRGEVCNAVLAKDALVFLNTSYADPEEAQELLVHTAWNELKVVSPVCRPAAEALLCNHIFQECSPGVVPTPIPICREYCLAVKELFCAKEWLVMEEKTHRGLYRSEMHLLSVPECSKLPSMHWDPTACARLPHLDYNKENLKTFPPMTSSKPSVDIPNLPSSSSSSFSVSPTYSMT

T2: Mouse MuSK as it stands on mouse muscle (neuromuscular junctions, C2C12 myotubes) (mouse, UniProt Q61006 22-868)
T2 sequence (looked up): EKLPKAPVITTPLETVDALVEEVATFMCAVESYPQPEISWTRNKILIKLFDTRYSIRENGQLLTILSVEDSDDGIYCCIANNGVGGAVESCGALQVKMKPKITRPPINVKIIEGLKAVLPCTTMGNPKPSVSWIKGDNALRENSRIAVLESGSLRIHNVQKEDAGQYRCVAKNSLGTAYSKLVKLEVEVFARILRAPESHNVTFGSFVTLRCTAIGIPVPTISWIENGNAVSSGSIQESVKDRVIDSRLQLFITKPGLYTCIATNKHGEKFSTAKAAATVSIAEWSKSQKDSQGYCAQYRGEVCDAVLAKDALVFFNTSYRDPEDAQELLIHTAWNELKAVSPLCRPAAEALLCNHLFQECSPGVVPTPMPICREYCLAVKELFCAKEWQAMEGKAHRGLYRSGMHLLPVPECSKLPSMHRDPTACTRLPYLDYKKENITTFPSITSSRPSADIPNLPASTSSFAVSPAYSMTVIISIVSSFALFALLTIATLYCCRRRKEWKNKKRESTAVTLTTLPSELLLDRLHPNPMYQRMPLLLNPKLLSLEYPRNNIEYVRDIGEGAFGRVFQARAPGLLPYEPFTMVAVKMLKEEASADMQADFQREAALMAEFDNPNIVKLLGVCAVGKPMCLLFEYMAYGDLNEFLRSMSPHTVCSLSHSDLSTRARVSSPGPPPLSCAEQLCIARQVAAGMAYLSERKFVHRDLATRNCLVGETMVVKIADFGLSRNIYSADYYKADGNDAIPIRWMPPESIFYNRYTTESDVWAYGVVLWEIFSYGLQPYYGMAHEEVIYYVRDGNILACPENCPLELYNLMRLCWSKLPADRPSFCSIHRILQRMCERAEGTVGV


Tests used:
[1] = biological target: T1, Human MuSK (R&D Systems, cat. 10189-MK, …); assay: SPR (Biacore), MuSK-coated chip presaturated with 500 nM 4D3 (competitor)
Method: A chip was coated with ˜5000 RU of human MuSK (Lot nr DHUCO 11908A, batch nr 1089_MK). In a first experiment the saturating concentration of the pre-leads was determined. This is the concentration where the amplitude of a specific pre-lead doesn't increase anymore when additional pre-lead is injected on the immobilized MuSK.

[2] = biological target: T2, Mouse MuSK as it stands on mouse muscle …; assay: cell-based or functional assay
[3] = biological target: T2, Mouse MuSK as it stands on mouse muscle …; assay: cell-based or functional assay; remark: listed apart in the source
[4] = biological target: T1, Human MuSK (R&D Systems, cat. 10189-MK, …); assay: SPR (Biacore), antibody captured on anti-hFc chip; 0.3125 nM; dissociation pH 5.5
Text: (§1) In order to study pH dependent binding of our antibodies to MuSK, the Biacore was used with the same setup as described in the paragraph entitled “Binding affinity for mouse, human and rhesus monkey recombinant MuSK in Biacore”. 6. […] For the other antibodies there is no real difference observed between pH 7.4 and 5.5.

[5] = biological target: T1, Human MuSK (R&D Systems, cat. 10189-MK, …); assay: SPR (Biacore), antibody captured on anti-hFc chip; 10 nM; dissociation pH 5.5
Text: as §1

[6] = biological target: T1, Human MuSK (R&D Systems, cat. 10189-MK, …); assay: SPR (Biacore), antibody captured on anti-hFc chip; 1.25 nM; dissociation pH 5.5
Text: as §1

Binder	amplitude of prelead after presaturating MuSK (RU) [1] [RU]	extra amplitude (%) [1] [%]	normalized extra amplitude (%) [1] [%]	AChR clusters larger or equal to 3 µm compared to agrin; antibody 0.11 µg/mL [2]	AChR clusters larger or equal to 3 µm compared to agrin; antibody 1.1 µg/mL [2]	AChR clusters larger or equal to 3 µm compared to agrin; antibody 11 µg/mL [2]	AChR clusters larger or equal to 3 µm compared to agrin; antibody 110 µg/mL [2]	MuSK phosphorylation, % versus agrin (C2C12 myotubes) [3] [% versus agrin]	koff [4] [s⁻¹]	koff [5] [s⁻¹]	koff [6] [s⁻¹]
3D10a (antibody, human IgG1, kappa, L234A L235A, V domains shown) VH: EVQLVESGGGLVKPGGSLRLSCAASGFTFSASTMAWVRQAPGKGLEWVSSVSGDSHHIYYADSLKGRFTISRDNAKNSLYLQMNSLRAEDTAVYYCARERLLRLGVGFDSWGQGTLVTVSS VL: DIQMTQSPSSLSASVGDRVTITCRASQRISGFVNWYQQKPGKAPKLLIYAASTLQSGVPSRFSGSGSGTDFTLTISSLQPEDFATYYCQQSYSPLYTFGQGTKLEIKR	68	7.2	1.9	80 % of agrin	79 % of agrin	76 % of agrin	73 % of agrin	83	6e-05	0.00011	7e-05
3D9b (antibody, human IgG1, kappa, L234A L235A, V domains shown) VH: EVQLVESGGGLVKPGGSLRLSCAASGFTFSTYTMHWVRQAPGKGLEWVSSISSRSAYKYYADSVKGRFTISRDNAKNSLYLQMNSLRAEDTAVYYCARDFFQLGPPRFDSWGQGTLVTVSS VL: DIQMTQSPSSLSASVGDRVTITCRASQRISSFLNWYQQKPGKAPKLLIYGASNLQSGVPSRFSGSGSGTDFTLTISSLQPEDFATYYCQQSYSPSYTFGQGTKLEIKR	163	14.9	9.6	65 % of agrin	99 % of agrin	93 % of agrin	84 % of agrin	205	3e-05	4e-05	3e-05

Next, values leading:

amplitude of prelead after presaturating MuSK (RU) [1] [RU]	extra amplitude (%) [1] [%]	normalized extra amplitude (%) [1] [%]	AChR clusters larger or equal to 3 µm compared to agrin; antibody 0.11 µg/mL [2]	AChR clusters larger or equal to 3 µm compared to agrin; antibody 1.1 µg/mL [2]	AChR clusters larger or equal to 3 µm compared to agrin; antibody 11 µg/mL [2]	AChR clusters larger or equal to 3 µm compared to agrin; antibody 110 µg/mL [2]	MuSK phosphorylation, % versus agrin (C2C12 myotubes) [3] [% versus agrin]	koff [4] [s⁻¹]	koff [5] [s⁻¹]	koff [6] [s⁻¹]	Binder
45	5.2	0	63 % of agrin	80 % of agrin	80 % of agrin	75 % of agrin	112	0.00018	0.00019	0.00016	4D3 (antibody, human IgG1, kappa, L234A L235A, V domains shown) VH: EVQLVESGGGLVKPGGSLRLSCAASGFTFSSYTMTWVRQAPGKGLEWVSSISSGGHYIYYTDSLKGRFTISRDNAKNSLYLQMNSLRAEDTAVYYCARERLLRLGVGFDFWGQGTLVTVSS VL: DIQMTQSPSSLSASVGDRVTITCRASQSISGYLNWYQQKPGKAPKLLIYAASTLQSGVPSRFSGSGSGTDFTLTISSLQPEDFATYYCQQSYSALYTFGQGTKLEIKR
59	5.8	0.6	74 % of agrin	57 % of agrin	62 % of agrin	61 % of agrin	100	0.00023	0.00023	0.00018	3F6c (antibody, human IgG1, kappa, L234A L235A, V domains shown) VH: EVQLVESGGGLVKPGGSLRLSCAASGFTFSSYTMDWVRQAPGKGLEWVSSIGSNGDYIYYADSVRGRFTISRDNAKNSLYLQMNSLRAEDTAVYYCARGQLAVAGTHFDYWGQGTLVTVSS VL: DIQMTQSPSSLSASVGDRVTITCRASQKVNKYVNWYQQKPGKAPKLLIYAASTLQSGVPSRFSGSGSGTDFTLTISSLQPEDFATYYCQQSYSPLSTFGQGTKLEIKR
